Laboratory results reported in paper PMC10853775 (Nucleic Acids Research, 2023).

Target: the molecule itself
Experiment: crystal structure

B1: human nucleoside diphosphate kinase (NDPKb) (enzyme)
chain: ANLERTFIAIKPDGVQRGLVGEIIKRFEQKGFRLVAMKFLRASEEHLKQHYIDLKDRPFFPGLVKYMNSGPVVAMVWEGLNVVKTGRVMLGETNPADSKPGTIRGDFCIQVGRNIIHGSDSVKSAEKEISLWFKPEELVDYKSCAHDWVYE
B1 was tested, and the “stoichiometry N” value was 6.
